Values joined by “and” are separate entries in the source; they are usually repeats but may differ in a detail not shown here. Identical values can stand only once.
What was measured:
[1] = molecular target: baseplate center piece protein (gp114) of phage 7-7-1 (Agrobacterium phage 7-7-1); experiment: cryo-EM structure; single particle analysis of purified virions; baseplate region, local refinements: baseplate core complex C6 3.4 Å, tail fibers C1 3.5 Å
[2] = molecular target: baseplate central hub protein (gp113) of phage 7-7-1 (Agrobacterium phage 7-7-1); experiment: as above
[3] = molecular target: baseplate wedge 1 (gp111) of phage 7-7-1 (Agrobacterium phage 7-7-1); experiment: as above
[4] = molecular target: baseplate wedge 2 (gp110) of phage 7-7-1 (Agrobacterium phage 7-7-1); experiment: as above
[5] = molecular target: central spike protein (gp112) of phage 7-7-1 (Agrobacterium phage 7-7-1); experiment: as above
[6] = molecular target: decoration protein (gp002) of phage 7-7-1 (Agrobacterium phage 7-7-1); experiment: cryo-EM structure; single particle analysis of purified virions in TM buffer (10 mM MgSO4, 20 mM Tris/HCl, pH 7.5); DNA-filled capsid, icosahedral symmetry, 3.4 Å
[7] = molecular target: garland protein (gp014) of phage 7-7-1 (Agrobacterium phage 7-7-1); experiment: cryo-EM structure; single particle analysis of purified virions; baseplate region, local refinements: baseplate core complex C6 3.4 Å, tail fibers C1 3.5 Å
[8] = molecular target: long tail fiber (gp015) of phage 7-7-1 (Agrobacterium phage 7-7-1); experiment: as above
[9] = molecular target: major capsid protein (gp003) of phage 7-7-1 (Agrobacterium phage 7-7-1); experiment: cryo-EM structure; single particle analysis of purified virions in TM buffer (10 mM MgSO4, 20 mM Tris/HCl, pH 7.5); DNA-filled capsid, icosahedral symmetry, 3.4 Å
[10] = molecular target: neck 1 protein (gp119) of phage 7-7-1 (Agrobacterium phage 7-7-1); experiment: cryo-EM structure; single particle analysis of purified virions; neck region, local refinements: portal C12 3.2 Å, collar C15 3.3 Å, neck 1 C3 3.5 Å, neck 2 + tail terminator + tail sheath + tail tube C6 3.6 Å
[11] = molecular target: neck 2 protein (gp121) of phage 7-7-1 (Agrobacterium phage 7-7-1); experiment: as above
[12] = molecular target: portal protein (gp005) of phage 7-7-1 (Agrobacterium phage 7-7-1); experiment: as above
[13] = molecular target: short tail fiber (gp008) of phage 7-7-1 (Agrobacterium phage 7-7-1); experiment: cryo-EM structure; single particle analysis of purified virions; baseplate region, local refinements: baseplate core complex C6 3.4 Å, tail fibers C1 3.5 Å
[14] = molecular target: tail terminator protein (gp124) of phage 7-7-1 (Agrobacterium phage 7-7-1); experiment: cryo-EM structure; single particle analysis of purified virions; neck region, local refinements: portal C12 3.2 Å, collar C15 3.3 Å, neck 1 C3 3.5 Å, neck 2 + tail terminator + tail sheath + tail tube C6 3.6 Å
[15] = molecular target: tail tube protein (gp127) of phage 7-7-1 (Agrobacterium phage 7-7-1); experiment: as above
[16] = molecular target: tail tube protein (gp127) of phage 7-7-1 (Agrobacterium phage 7-7-1); experiment: cryo-EM structure; single particle analysis of purified virions; extended tail, C6 helical refinement, twist 27.35°, rise 35.25 Å, 3.1 Å

With “baseplate center piece protein (gp114) of phage 7-7-1 (natural protein)” the stoichiometry N [1] was 6.

“baseplate central hub protein (gp113) of phage 7-7-1 (natural protein)” showed a stoichiometry N [2] of 3.

“baseplate wedge 1 (gp111) of phage 7-7-1 (natural protein)” was tested, and the stoichiometry N [3] was 6.

With “baseplate wedge 2 (gp110) of phage 7-7-1 (natural protein)” the stoichiometry N [4] was 2.

Substance “central spike protein (gp112) of phage 7-7-1 (natural protein)” has a stoichiometry N [5] of 3.

In the case of “decoration protein (gp002) of phage 7-7-1 (natural protein)”, the stoichiometry N [6] is reported as 2.

For “garland protein (gp014) of phage 7-7-1 (natural protein)”, the stoichiometry N [7] was 2.

In the case of “long tail fiber (gp015) of phage 7-7-1 (natural protein)”, the stoichiometry N [8] is reported as 3.

“major capsid protein (gp003) of phage 7-7-1 (natural protein)” was tested, and the stoichiometry N [9] was 6 and 5.

“neck 1 protein (gp119) of phage 7-7-1 (natural protein)” gave a stoichiometry N [10] of 12.

“neck 2 protein (gp121) of phage 7-7-1 (natural protein)” was tested, and the stoichiometry N [11] was 6.

In the case of “portal protein (gp005) of phage 7-7-1 (natural protein)”, the stoichiometry N [12] is reported as 12.

Substance “short tail fiber (gp008) of phage 7-7-1 (natural protein)” has a stoichiometry N [13] of 3.

“tail terminator protein (gp124) of phage 7-7-1 (natural protein)” gave a stoichiometry N [14] of 6.

Work on “tail tube protein (gp127) of phage 7-7-1 (natural protein)” yielded a stoichiometry N [15] of 6 and a stoichiometry N [16] of 6.

— article PMC12796354
